# Laboratory results as given in article PMC3790820, “A Rapid and High-Throughput Quantitation Assay of the Nuclear Factor κB Activity Using Fluorescence Correlation Spectroscopy in the Setting of Clinical Laboratories”.
# Tests used:
# [1] = molecular target: T1, NF-kB p50 (hr-p50) (human (recombinant), UniProt P19838 1-433); assay: competition (FCS); little effect at 1 and 50 nM competitor; TAMRA probe N1; 50 mM Tris-HCl pH 7.5, 250 mM NaCl, 1 mM EDTA, 2.5 mM DTT, 10% glycerol, 1 nM TAMRA probe, 1 ug poly(dI-dC), room temperature, 10 min; details: protein: commercial; chain copies: 2; hairpin, 21 bp stem, AAAA loop
# T1 sequence (P19838 1-433): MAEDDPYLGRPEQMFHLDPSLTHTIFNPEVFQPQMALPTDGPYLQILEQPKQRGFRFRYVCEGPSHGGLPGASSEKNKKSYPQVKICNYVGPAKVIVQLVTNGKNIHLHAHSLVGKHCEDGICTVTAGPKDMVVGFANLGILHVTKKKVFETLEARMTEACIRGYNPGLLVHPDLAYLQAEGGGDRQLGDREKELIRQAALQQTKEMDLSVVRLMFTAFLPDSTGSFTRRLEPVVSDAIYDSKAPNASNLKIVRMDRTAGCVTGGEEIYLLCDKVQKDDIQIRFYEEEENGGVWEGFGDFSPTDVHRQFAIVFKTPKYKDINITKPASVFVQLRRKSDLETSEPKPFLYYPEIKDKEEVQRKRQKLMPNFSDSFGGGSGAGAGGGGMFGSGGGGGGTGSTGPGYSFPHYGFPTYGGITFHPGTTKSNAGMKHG
# [2] = molecular target: T1, NF-kB p50 (hr-p50); assay: competition (FCS); 868.0 us at 1 nM, 495.8 us at 50 nM competitor; TAMRA probe N1; 50 mM Tris-HCl pH 7.5, 250 mM NaCl, 1 mM EDTA, 2.5 mM DTT, 10% glycerol, 1 nM TAMRA probe, 1 ug poly(dI-dC), room temperature, 10 min; details: protein: commercial; chain copies: 2; hairpin, 22 bp stem, AAAA loop
Binder,binding result [1],binding result [2]
CAGGCGCGTTTTGACCATCTTAAAAAAGATGGTCAAAACGCGCCTG (structured_DNA) [nonspecific competitor stem-loop],no binding,–
AGTTGAGGGGACTTTCCCAGGCAAAAGCCTGGGAAAGTCCCCTCAACT (structured_DNA) [wild-type competitor stem-loop],–,binds
